Test results: the nanobody polyreactivity screen of Harvey et al. (2022)

assay: yeast display, Sf9 membrane polyspecificity reagent, FACS + sequencing; frameworks hold sequencing errors
Outline: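 In a synthetic yeast display library (Saccharomyces cerevisiae BJ5465), nanobody expression was induced with galactose for 36–48 hours. FACS gates were set low and high (top ~1%) using anti-HA fluorescence for expression and streptavidin fluorescence for binding of the Sf9 membrane reagent. Each polyreactivity label is drawn from the gate of origin.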

| Sequence | polyreactivity (PSR sort gate) |
| --- | --- |
| QVQLVESGGGLVQAGGSLRLSCAASGRTFWNYAMGWYRQATGKERELVAVIRFSDGSTYYADSVKGRFTISRDNAKNTVYLQMNSLKPEDTAVYYCAAKGPRRWGSGFDYWGQGTQVTVSS | low polyreactivity |
| QVQLVESGGGLVQAGGSLRLSCAASGRTFWPNAMGWYRQAPGKERELVAGIDWSGGSTYYADSVKGRFTISRDNAKNTVYLQMNSLKPEDTAVYYCNKVYYSYIPSTYGYWGQGTQVTVSS | high polyreactivity |
| QVQLVESGGGLVQAGGSLRLSCAASGRTFWRNAMGWYRQAPGKERELVADITTSGARTYYADSVKGRFTISRDNAKNTVYLQMNSLKPEDTAVYYCAKGPYTPWPKITGYNYWGQGTQVTVSS | high polyreactivity |
| QVQLVESGGGLVQAGGSLRLSCAASGRTFWRYTMGWYRQAPGKERELVAAISTNAGTTYYADSVKGRFTISRDNAKNTVYLQMNSLKPEDTAVYYCAARHPGNGYADPTNYYWGQGTQVTVSS | high polyreactivity |
| QVQLVESGGGLVQAGGSLRLSCAASGRTFWSYAMGWYRQAPGKEREFVAAISRRGGITYYADSVKGRFTISRDNAKNTVYLQMNSLKPEDTAVYYCAALPASVRRPGWHDYWGQGTQVTVSS | high polyreactivity |
| QVQLVESGGGLVQAGGSLRLSCAASGRTFWTNTMGWYRQAPGNEREFVAAITFGDGSTSYADSVKGRFTISRDNAKNTVYLQMNCLIAEVTAVYYCAKRWRRRFVDVWSLYDYWGQGTQVTVSS | low polyreactivity |
| QVQLVESGGGLVQAGGSLRLSCAASGRTFWWNAMGWYRQAPGKERELVAVISYSGGSTYYADSVKGRFTISRDNAKNTVYLQMNSLKPEDTAVYYCAAEAYTYWDTIYDYLGQGTQVTVSS | high polyreactivity |
| QVQLVESGGGLVQAGGSLRLSCAASGRTFWYYAMGWYRQAPGKEREFVAAISWSGGSTYYADSVKGRFTISRDNAKNTVYLQMNSLKPEDTAVYYCAADRYDSSQFYYWGQGTQVTVSS | low polyreactivity |
| QVQLVESGGGLVQAGGSLRLSCAASGRTFWYYAMGWYRQAPGKERELVAAITSGGSTNYADSVKGRFTISRDNAKNTVYLQMNSLKPEDTAVYYCAVDGLGGREGYWGQGTQVTVSS | high polyreactivity |
| QVQLVESGGGLVQAGGSLRLSCAASGRTFWYYAMGWYRQSPGKERELVAVITSGSSTYYADSVKGRFTISRDNAKNTVYLQMNSLKPEDTAVYYCAVGRTYRRYSAASYNYWGQGTQVTVSS | high polyreactivity |
| QVQLVESGGGLVQAGGSLRLSCAASGRTFWYYARGWYRQAPGKERELVAYADSVKGRFTISRDNAKNTVYLQMNSLKQEDTAVYYCAVGPVVWFSSSLYYTDYYYWGQGTQVTVSS | low polyreactivity |
| QVQLVESGGGLVQAGGSLRLSCAASGRTFWYYGMGWYRQAPGKERELVAAIRGSGGSTYYADSVKGRFTISRDNAKNTVYLQMNSLKPEDTAVYYCAKRSYIRPKYTYEYWGQGTQVTVSS | high polyreactivity |
| QVQLVESGGGLVQAGGSLRLSCAASGRTFWYYGMGWYRQAPGKERELVAAISRSGGRTSYADSVKGRFTISRDNAKNTVYLQMNSLKPEDTAVYYCATDGYYRYGYWGQGTQVTVAS | high polyreactivity |
| QVQLVESGGGLVQAGGSLRLSCAASGRTFWYYTMGWYRQAPGKEREFVAAISYSAGNTYYADSVKGRFTISRDNAKNTVYLQMNSLKPEDTAVYYCAVQRGYRSNAYDYWGQGTQVTVSS | high polyreactivity |
| QVQLVESGGGLVQAGGSLRLSCAASGRTFWYYTMGWYRQAPGKERELVASITSGSGTTYYADSVKGRFTISRDNAKNTVYLQMNSLKPEDTAVSSCAAKNTPSFFYYDRYDYWGQGTQVTVSS | low polyreactivity |
| QVQLVESGGGLVQAGGSLRLSCAASGRTFYANAMGWYRQAPGKERELVATISSGGRTNYADSVKGRFTISRDNAKNTVYFQMNSLKPEDTAVYYCAKRGPYNRWYGRYDYWGQGTQVTVSS | low polyreactivity |
| QVQLVESGGGLVQAGGSLRLSCAASGRTFYANAMGWYRQAPGKERELVATITRGGSTNYADSVKGRFTISRDNAKNTVYLQMNSLKPEDTAVYYCAARSYTSSHRHYYWGQGTQVTVSS | low polyreactivity |
| QVQLVESGGGLVQAGGSLRLSCAASGRTFYANLMGWYRQAPGKERELVAAITYSGGSTYYADSVKGRFTISRDNATITVYLPMSSLKPEDTAVYYCAADNVSTFYYWGQGTQVTVSS | low polyreactivity |
| QVQLVESGGGLVQAGGSLRLSCAASGRTFYANTMGRYRQAPGTERELVAGITSGGSTSYADSVKGRFTISRDNAKNTVYLQMNSLKPEDTAVYYCAAQFYRYTATGYYADGYWGQGTQVTVSS | low polyreactivity |
| QVQLVESGGGLVQAGGSLRLSCAASGRTFYAYAMGWYRQAPGKDRELVAAITLSTGTTYYADSVKGRFTISRDNAKNTVYLQMNSLKPADTAVYYCAVEGYWYAGWYAMDYWGQGTQVTVSS | low polyreactivity |

| Sequence | polyreactivity (PSR sort gate) |
| --- | --- |
| QVQLVESGGGLVQAGGSLRLSCAASGRTFYAYAMGWYRQAPGKERELVAAITKRDGITFYADSVKGRFTISRDNAKNTVYLQMNSLKPEDTAVYYCAATGYVGGIYGHYPRGYWGQGTQVTVSS | high polyreactivity |
| QVQLVESGGGLVQAGGSLRLSCAASGRTFYDNTMGWYRQAPGKERELVAAISRGGSTYADSVKGRFTISRDNAKNTVYLELNSLKPEDTAVYYSNKRSITTEYGYWGQGTQVTVSS | low polyreactivity |
| QVQLVESGGGLVQAGGSLRLSCAASGRTFYFNTMGWDRPAPGKERELVAAIDERGDSTYYADSVKGRFTISRDNAKNTVYLQMNSLKPEDTAVYYCATDWTLEVYYGRYIAKYEYGSWGQGTQVTVSS | low polyreactivity |
| QVQLVESGGGLVQAGGSLRLSCAASGRTFYFYTMGWYRQAPGKERELVAAISWSGGSTYYADSVKGRFTISRDNAKNTVYLQMISLKPEDTAVYYCAASSPWEQSNDQFYYWGQGTQVTVSS | low polyreactivity |
| QVQLVESGGGLVQAGGSLRLSCAASGRTFYGNAMGWYRQAPGKERELVAAINRDGGTYYADSVKGRFTISRDNAKNTVYLQMNSLKPEDTAVYYCNAVKRGIRYGYWGQGTQVTVSS | high polyreactivity |
| QVQLVESGGGLVQAGGSLRLSCAASGRTFYGNAMGWYRQAPGKERELVAAISWSGGGTYYADSVKGRFTISRDNAKNTVYLQMNSLKPEDTAVYYCAAQFGRKGSGVWTRPENYWGQGTQVTVSS | high polyreactivity |
| QVQLVESGGGLVQAGGSLRLSCAASGRTFYGNAMGWYRQAPGKERELVAAISYRTGRTYYADSVKGRFTISRDNAKNTVYLQMNSLKPEDTAVYYCAADLHSRDDYWGQGTKVTVSS | high polyreactivity |
| QVQLVESGGGLVQAGGSLRLSCAASGRTFYGYAMGLYRQAPGKERELGASIRQSAGRTYYADSVKGRFTISRDNAMNTVYLQMNSLNPEDTAVYYCAASIFLRSFYQQGNYWGQGTQVTVSS | high polyreactivity |
| QVQLVESGGGLVQAGGSLRLSCAASGRTFYGYAMGWYRQAPGKEREFVAAINRSGGTTYYADSVKGRFTISRDNAKNTVYLQMNSLKPEDTAVYYCAADYSRIRRWPGYYAYDYWGQGTQVTVSS | high polyreactivity |
| QVQLVESGGGLVQAGGSLRLSCAASGRTFYGYAMGWYRQAPGKEREFVAAINWSGGTTYYADSVKGRFTISRDNAKNTVYLQMNSLKPEDTAVYYCAADYYRIRRWPGYYAYDYWGQGTQVTVSS | high polyreactivity |
| QVQLVESGGGLVQAGGSLRLSCAASGRTFYGYAMGWYRQAPGKEREFVAAITYSGGRTYYADSVKGRFTISRDNAKNTVYLQMNSLKPEETAVYYCNAYYYYVNQGRYEYGYWGQGTQVTVSS | high polyreactivity |
| QVQLVESGGGLVQAGGSLRLSCAASGRTFYGYAMGWYRQAPGKERELVAVITRDGSTNYADSVKGRFTISRDNAKNTVYLQMNSLKPEDTAVYDCAAERLAYRVRWRYNQEDYWGQGTQVTVSS | high polyreactivity |
| QVQLVESGGGLVQAGGSLRLSCAASGRTFYGYTMGWYRQAPGKERELVAAISRNGASTFYADSVKGRFTISRDNAKNTVYLQMNSLKPEDTAVYYCNARSWRHTDTSFEYWGQGTQVTVSS | high polyreactivity |
| QVQLVESGGGLVQAGGSLRLSCAASGRTFYGYTMGWYRQAPGKERELVAAISTGGGSTYYADSVKGRFTISRDNAKNTVYLQMNSLKPEDTEVYYCAARGGSYSFRRYNYWGQGTQVTVSS | high polyreactivity |
| QVQLVESGGGLVQAGGSLRLSCAASGRTFYHNTIGGYRQQPGKERELVAVINDSGTRTYYADSVKGRFTISRDNAKNTVYLQMNSLKPEDTAVYYCAARSYVGGAILGYWGQGTQVTVSS | high polyreactivity |
| QVQLVESGGGLVQAGGSLRLSCAASGRTFYHYTMGWYTQAPGKERELVAAISSGGSTNYADSVKGRFTISRDNAKNTVYLQMNSLKPEDTAVYYCAARYRGWSGGYDYWGQGTQETVSS | high polyreactivity |
| QVQLVESGGGLVQAGGSLRLSCAASGRTFYINAMGWYRPEPGKERELVAAISSSGGITYYADSVKGRFTISRDNAKNTVNLQMIRLKPEDTAVYYCNAPNDYSWHYDYWGQGTQVTVSS | low polyreactivity |
| QVQLVESGGGLVQAGGSLRLSCAASGRTFYINAMGWYRQAPGKEREFVAAITDGGDRTYYADSVKGRFTISRDNEKNTVYLQMNSLKPEDTAVYYCAADRGVRYDYWGQGTQVTVSS | low polyreactivity |
| QVQLVESGGGLVQAGGSLRLSCAASGRTFYIYAMGWYRQAPGKERELVAAITYGGGRTFYADSVKGRFTISRDNAKNTVYLQMNSLKPEDTAVYYCAASVRGKRSTYDYWGQGTQVTVSS | high polyreactivity |
| QVQLVESGGGLVQAGGSLRLSCAASGRTFYIYAMGWYRQAPGKERELVAAITYGGGRTFYADSVKGRFTISRDNAKNTVYLQMNSLKPEDTAVYYCAATVRGKRSTYDYWGQGTQVTVSS | high polyreactivity |
